Data reported in patent US20110118447A1.
Positions count from the first letter of the chain named. Names may count otherwise. Values belong to the binder of their own block, whether it stands above or below them.

Target: binding partner of C5A (XPA23)
Experiment: Biacore K-off

B1: C5A (XPA23) VL A91E (antibody, V domains shown)
VH: EVQLLESGGGLVQPGGSLRLSCAASGFTFSKYFMFWVRQAPGKGLEWVSVISPSGGMTRYADSVKGRFTISRDNSKNTLYLQMNSLRAEDTAVYYCARVGYGGNSDYWGQGTLVTVSS
VL: DIQMTQSPSSVSASVGDRLTIICRASQDINRWLAWYQQTPGNAPKLLIHSATSLQSGVPSRFSGSGSGTDFTLTINSLQPEDFATYYCQQEDSFPLTFGGGTKVEIK
- fold difference in affinity vs original: 0.1 fold

B6: C5A (XPA23) VL D92E (antibody, V domains shown)
VH: B1 VH
VL: B1 VL with E91A, D92E
- fold difference in affinity vs original: 0.99 fold

B11: C5A (XPA23) VL D28P (antibody, V domains shown)
VH: B1 VH
VL: B1 VL with D28P, E91A
- fold difference in affinity vs original: 1.17 fold

B14: C5A (XPA23) VL A91T (antibody, V domains shown)
VH: B1 VH
VL: B1 VL with E91T
- fold difference in affinity vs original: 0.67 fold

B15: C5A (XPA23) VL D92T (antibody, V domains shown)
VH: B1 VH
VL: B1 VL with E91A, D92T
- fold difference in affinity vs original: 0.34 fold

B16: C5A (XPA23) VL A91N (antibody, V domains shown)
VH: B1 VH
VL: B1 VL with E91N
- fold difference in affinity vs original: 0.1 fold

B17: C5A (XPA23) VL D28G (antibody, V domains shown)
VH: B1 VH
VL: B1 VL with D28G, E91A
- fold difference in affinity vs original: 1.21 fold

B18: C5A (XPA23) VL D28V (antibody, V domains shown)
VH: B1 VH
VL: B1 VL with D28V, E91A
- fold difference in affinity vs original: 0.85 fold

B19: C5A (XPA23) VL A91S (antibody, V domains shown)
VH: B1 VH
VL: B1 VL with E91S
- fold difference in affinity vs original: 0.9 fold

B27: C5A (XPA23) VL D28A (antibody, V domains shown)
VH: B1 VH
VL: B1 VL with D28A, E91A
- fold difference in affinity vs original: 0.88 fold

B29: C5A (XPA23) VL D92S (antibody, V domains shown)
VH: B1 VH
VL: B1 VL with E91A, D92S
- fold difference in affinity vs original: 6.59 fold

B30: C5A (XPA23) VL D92K (antibody, V domains shown)
VH: B1 VH
VL: B1 VL with E91A, D92K
- fold difference in affinity vs original: 0.23 fold

B32: C5A (XPA23) VL D28W (antibody, V domains shown)
VH: B1 VH
VL: B1 VL with D28W, E91A
- fold difference in affinity vs original: 3.81 fold

B34: C5A (XPA23) VL D28L (antibody, V domains shown)
VH: B1 VH
VL: B1 VL with D28L, E91A
- fold difference in affinity vs original: 9.64 fold

B35: C5A (XPA23) VL A91H (antibody, V domains shown)
VH: B1 VH
VL: B1 VL with E91H
- fold difference in affinity vs original: 1.12 fold

B37: C5A (XPA23) VL D92N (antibody, V domains shown)
VH: B1 VH
VL: B1 VL with E91A, D92N
- fold difference in affinity vs original: 0.67 fold

B43: C5A (XPA23) VL D92H (antibody, V domains shown)
VH: B1 VH
VL: B1 VL with E91A, D92H
- fold difference in affinity vs original: 0.63 fold

B45: C5A (XPA23) VL D28F (antibody, V domains shown)
VH: B1 VH
VL: B1 VL with D28F, E91A
- fold difference in affinity vs original: 1.43 fold

B46: C5A (XPA23) VL D92Q (antibody, V domains shown)
VH: B1 VH
VL: B1 VL with E91A, D92Q
- fold difference in affinity vs original: 0.56 fold

Next, values leading:

- fold difference in affinity vs original: 1.47 fold
B2: C5A (XPA23) VL Q27A (antibody, V domains shown)
VH: B1 VH
VL: B1 VL with Q27A, E91A

- fold difference in affinity vs original: 0.23 fold
B3: C5A (XPA23) VL L96S (antibody, V domains shown)
VH: B1 VH
VL: B1 VL with E91A, L96S

- fold difference in affinity vs original: 2.96 fold
B4: C5A (XPA23) VL Q27F (antibody, V domains shown)
VH: B1 VH
VL: B1 VL with Q27F, E91A

- fold difference in affinity vs original: 0.89 fold
B5: C5A (XPA23) VL N30V (antibody, V domains shown)
VH: B1 VH
VL: B1 VL with N30V, E91A

- fold difference in affinity vs original: 0.71 fold
B7: C5A (XPA23) VL N30G (antibody, V domains shown)
VH: B1 VH
VL: B1 VL with N30G, E91A

- fold difference in affinity vs original: 3.71 fold
B8: C5A (XPA23) VL S93E (antibody, V domains shown)
VH: B1 VH
VL: B1 VL with E91A, S93E

- fold difference in affinity vs original: 1.32 fold
B9: C5A (XPA23) VL P95D (antibody, V domains shown)
VH: B1 VH
VL: B1 VL with E91A, P95D

- fold difference in affinity vs original: 0.68 fold
B10: C5A (XPA23) VL N30L (antibody, V domains shown)
VH: B1 VH
VL: B1 VL with N30L, E91A

- fold difference in affinity vs original: 1.59 fold
B12: C5A (XPA23) VL N30F (antibody, V domains shown)
VH: B1 VH
VL: B1 VL with N30F, E91A

- fold difference in affinity vs original: 1.47 fold
B13: C5A (XPA23) VL S93T (antibody, V domains shown)
VH: B1 VH
VL: B1 VL with E91A, S93T

- fold difference in affinity vs original: 0.07 fold
B20: C5A (XPA23) VL L96H (antibody, V domains shown)
VH: B1 VH
VL: B1 VL with E91A, L96H

- fold difference in affinity vs original: 1.08 fold
B21: C5A (XPA23) VL S93H (antibody, V domains shown)
VH: B1 VH
VL: B1 VL with E91A, S93H

- fold difference in affinity vs original: 3.76 fold
B22: C5A (XPA23) VL S93N (antibody, V domains shown)
VH: B1 VH
VL: B1 VL with E91A, S93N

- fold difference in affinity vs original: 0.83 fold
B23: C5A (XPA23) VL Q27L (antibody, V domains shown)
VH: B1 VH
VL: B1 VL with Q27L, E91A

- fold difference in affinity vs original: 4.05 fold
B24: C5A (XPA23) VL P95S (antibody, V domains shown)
VH: B1 VH
VL: B1 VL with E91A, P95S

- fold difference in affinity vs original: 1.54 fold
B25: C5A (XPA23) VL S93Q (antibody, V domains shown)
VH: B1 VH
VL: B1 VL with E91A, S93Q

- fold difference in affinity vs original: 0.88 fold
B26: C5A (XPA23) VL P95E (antibody, V domains shown)
VH: B1 VH
VL: B1 VL with E91A, P95E

- fold difference in affinity vs original: 0.21 fold
B28: C5A (XPA23) VL L96Q (antibody, V domains shown)
VH: B1 VH
VL: B1 VL with E91A, L96Q

- fold difference in affinity vs original: 0.91 fold
B31: C5A (XPA23) VL S93R (antibody, V domains shown)
VH: B1 VH
VL: B1 VL with E91A, S93R

- fold difference in affinity vs original: 1.45 fold
B33: C5A (XPA23) VL S93Y (antibody, V domains shown)
VH: B1 VH
VL: B1 VL with E91A, S93Y

- fold difference in affinity vs original: 0.06 fold
B36: C5A (XPA23) VL L96N (antibody, V domains shown)
VH: B1 VH
VL: B1 VL with E91A, L96N

- fold difference in affinity vs original: 0.86 fold
B38: C5A (XPA23) VL S93K (antibody, V domains shown)
VH: B1 VH
VL: B1 VL with E91A, S93K

- fold difference in affinity vs original: 0.82 fold
B39: C5A (XPA23) VL Q27I (antibody, V domains shown)
VH: B1 VH
VL: B1 VL with Q27I, E91A

- fold difference in affinity vs original: 0.65 fold
B40: C5A (XPA23) VL N30I (antibody, V domains shown)
VH: B1 VH
VL: B1 VL with N30I, E91A

- fold difference in affinity vs original: 0.06 fold
B41: C5A (XPA23) VL L96T (antibody, V domains shown)
VH: B1 VH
VL: B1 VL with E91A, L96T

- fold difference in affinity vs original: 0.61 fold
B42: C5A (XPA23) VL N30A (antibody, V domains shown)
VH: B1 VH
VL: B1 VL with N30A, E91A

- fold difference in affinity vs original: 4.59 fold
B44: C5A (XPA23) VL S93D (antibody, V domains shown)
VH: B1 VH
VL: B1 VL with E91A, S93D
